From patent publication US7939292B2, “Modified heparinase III and methods of sequencing therewith” (Massachusetts Institute of Technology, priority 2000, dated 2011)

How the values were obtained:
B16BL6 melanoma = test: Primary tumor growth of B16BL6 melanoma in mice treated with heparinases; type: in vivo
From the text: Heparinases I and III, which have very distinct substrate specificities for cleaving HLGAGs, were employed as tools to investigate the role of HLGAGs in tumor growth and metastasis. While heparinase I cleaves at the highly sulfated regions of HLGAGs, heparinase III only cleaves at the under-sulfated regions of the polysaccharide chain, thereby rendering these enzymes powerful tools to investigate in vivo and in vitro roles of HLGAGs, in development, morphogenesis, angiogenesis etc. To examine the roles of HLGAGs in tumor growth and metastasis, we used B16BL6 melanoma as a model system and treated tumor-bearing mice with either heparinases I or III to investigate both primary tumor growth as well as tumor metastasis. Consistent with the current paradigm, heparinase I accelerated tumor growth (FIG. 8). At a dosage of 0.5 mg/kg/day of heparinase I, tumor growth was increased by about 39%. […] Inhibition of primary tumor growth by heparinase III was first observed at 2 mg/kg per day. Tumor growth was inhibited by 73% at 12 mg/kg per day, the maximum dosage tested in the study (FIG. 8).
Mice, 15 days after tumor implantation with B16BL6 melanoma, were examined. 4×10^5 log growth phase B16BL6 melanoma cells in 0.1 ml PBS were injected to the flank of C57BL/6 mice on day 1. Daily injection of 0.1 ml of PBS, heat inactivated hep III or active heparinase III (2 mg/ml, recombinantly expressed, purified, buffer exchanged with PBS, and concentrated) started at the day 4 and continued throughout the experiment. At day 7, osmotic pumps (100 μl capacity delivering at 0.5 μl per hour) containing PBS or 3 mg/ml hep III were implanted subcutaneously at a place remote from the tumor site. Mice were sacrificed at day 15.
FIG. 8 depicts the tumor volume of the tumors isolated from the mice described above. Tumor volume was measured daily after day 7 with a caliper and calculated with the formula [volume=0.52×(width)^2×(length)].

B16BL6 cells = test: FGF-induced proliferation of B16BL6 cells in vitro; type: cell-based
FGFR1 = FGFR1 phosphorylation in B16BL6 tumor samples; design: species or system mice; details: mouse, in vivo
Method: c. Effect of treatment of tumor with hep I and hep III in FGFR1 activation compared to PBS. Level of phosphorylated FGFR1 in tumor samples was assessed by standard immunoprecipitation followed by Westernblotting with phosphotyrosine specific antibody. Primary B16BL6 tumors were grown and treated as described earlier and at day 15 the tumor was harvested in cold modified RIPA buffer containing enzyme inhibitors and homogenized. The homogenates were past through 25-gauge needle 3 times and centrifuged. The supernatant was adjusted for protein concentration using the Bio-Rad protein assay kit (Bio-Rad). FGFR1 was immunoprecipitated with poly-clonal anti-FGFR1 antibody (Santa Cruz Biotechnology, Inc., CA). Samples were then pelleted, washed, and eluted from the beads by addition of sample buffer and boiled for 3 minutes (Kapila, Y. L., Wang, S. & Johnson, P. W. Mutations in the heparin binding domain of fibronectin in cooperation with the V region induce decreases in pp125(FAK) levels plus proteoglycan-mediated apoptosis via caspases. J Biol Chem 274, 30906-13 (1999).). After electrophoresis, the gel was transferred to nitrocellulose membrane by standard methods. The immunoblot was probed with phosphotyrosine specific antibody conjugated to HRP (RC20; Transduction Laboratories, Lexington, Ky.) and developed with SuperSignal West Pico Chemiluminescent substrate. […]

FAK = test: Activation of FAK in B16BL6 tumor; design: species or system mice; details: mouse, in vivo
From the text: d. Effect of heparinase treatment on activation of FAK in B16BL6 tumor. The FAK protein was immunoprecipitated with mouse anti-FAK monoclonal antibody (Transduction Laboratories, Lexington, Ky.) according to the procedures described above. The phosphorylated FAK was detected using phosphotyrosine specific antibody RC20.

B1: heparinase III: HLGAG degrading enzyme from Flavobacterium heparinum (EC 4.2.2.8), SEQ ID NO:2; cleaves heparan sulfate (protein, listed as Pedobacter heparinus)
chain: MTTKIFKRIIVFAVIALSSGNILAQSSSITRKDFDHINLEYSGLEKVNKAVAAGNYDDAAKALLAYYREKSKAREPDFSNAEKPADIRQPIDKVTREMADKALVHQFQPHKGYGYFDYGKDINWQMWPVKDNEVRWQLHRVKWWQAMALVYHATGDEKYAREWVYQYSDWARKNPLGLSQDNDKFVWRPLEVSDRVQSLPPTFSLFVNSPAFTPAFLMEFLNSYHQQADYLSTHYAEQGNHRLFEAQRNLFAGVSFPEFKDSPRWRQTGISVLNTEIKKQVYADGMQFELSPIYHVAAIDIFLKAYGSAKRVNLEKEFPQSYVQTVENMIMALISISLPDYNTPMFGDSWITDKNFRMAQFASWARVFPANQAIKYFATDGKQGKAPNFLSKALSNAGFYTFRSGWDKNATVMVLKASPPGEFHAQPDNGTFELFIKGRNFTPDAGVFVYSGDEAIMKLRNWYRQTRIHSTLTLDNQNMVITKARQNKWETGNNLDVLTYTNPSYPNLDHQRSVLFINKKYFLVIDRAIGEATGNLGVHWQLKEDSNPVFDKTKNRVYTTYRDGNNLMIQSLNADRTSLNEEEGKVSYVYNKELKRPAFVFEKPKKNAGTQNFVSIVYPYDGQKAPEISIRENKGNDFEKGKLNLTLTINGKQQLVLVP
B1 was tested, and the “inhibition of tumor growth” value (B16BL6 melanoma; 12 mg/kg per day, maximum dosage tested) was 73%, the “dosage at which inhibition of primary tumor growth was first observed” value (B16BL6 melanoma; mouse, in vivo) was 2 mg/kg per day and the primary tumor growth (B16BL6 melanoma; nude mice and C57BL/6 mice, subcutaneous injections) was “significant inhibition in primary tumor growth”. The “FGF-induced proliferation of B16BL6 cells” value (B16BL6 cells) was “inhibit FGF-induced proliferation”, the “phosphorylation of FGFR1 in primary tumor” value (FGFR1) was “inhibited phosphorylation of FGFR1” and the “FAK activation in tumor” value (FAK) was “inhibited FAK activation”.
